How the values were obtained:
BTH101 ΔrecB cells = test: Western blot of RecB expression level; set-up: species or system Escherichia coli; conditions: pUT18C constructs in BTH101 ΔrecB; Ponceau S normalized; relative to BTH101 wild type
Experimental: Samples, including purified RecB, β-clamp (purified as previously explained for co-immunoprecipitation), input (10 µg; 0.5%), and pull-down eluates, and samples from BTH101 cultures used in survival assays, were mixed with 1 mM dithiothreitol (DTT) and 1× NuPAGE LDS sample buffer, then heated to 75°C for 10 min. […] SeeBlue Plus2 Pre-stained Protein Standard (Invitrogen) was used as a molecular weight marker.
Proteins were transferred onto 0.2-µm nitrocellulose membranes using the Trans-Blot Turbo Transfer System (Bio-Rad), and membranes were blocked in 5% (w/v) skim milk (Merck) in PBS-T (PBS with 0.1% Tween-20) for 45–60 min at room temperature. […] Following protein transfer, these membranes were also incubated in 0.1% (w/v) Ponceau S solution for 5 min to verify transfer efficiency and account for total protein loading. The stain was visualized, imaged for densitometric normalization, and subsequently removed by washing with deionized water prior to blocking. […]
Relative RecB levels were quantified from the western blot images using Fiji (ImageJ) [58]. […] The lane profiles were plotted, and the measured signal from each lane was first normalized to the relevant Ponceau stain signal from the same lane and then to the wild-type strain.

[1] = tested on: E. coli BTH101 ∆recB strain (IMR04); test: Ciprofloxacin survival assay (complementation of BTH101 ΔrecB); format: cell-based, Escherichia coli; conditions: expressed from pUT18C in BTH101 ΔrecB; ciprofloxacin 2–16 ng/ml, 2 h, 37°C; CFU; 2 to 3 biological replicates
Experimental: (§1) Non-transformed BTH101 and BTH101 ∆recB served as positive and negative controls, respectively. All strains were cultured at 30°C to early exponential phase (OD600 around 0.2, measured by Nanodrop One) before treatment.
. Cultures were incubated at 37°C with shaking for 2 h. Following treatment, cells were pelleted by centrifugation and resuspended in fresh LB medium to remove residual antibiotic and halt exposure. Cultures were then serially diluted 10-fold, and 5 µl of each dilution was spotted onto LB agar plates. After overnight incubation at 30°C, CFUs were counted. […]

ΔrecA ΔrecB cells [2] = test: DNA degradation assay after UV ("reckless" DNA degradation); format: cell-based, Escherichia coli; conditions: expressed from pUT18C in ΔrecA ΔrecB; UV 50 J/m^2, 3 h; Hoechst 33258 microscopy
Experimental: (§2) IMR13 (ΔrecA) served as a positive control for RecB-mediated DNA degradation, while IMR19 (ΔrecA ΔrecB) was used as a negative control.
(§3) Overnight cultures were diluted to an OD600 of 0.01 into LB medium supplemented with appropriate antibiotics and incubated with shaking at 37°C until they reached an OD600 of 0.2. Each culture was split into two 1 ml aliquots. One aliquot was fixed immediately in ethanol (50% final concentration) to assess DNA content prior to UV exposure. The second aliquot was pelleted, resuspended in 1× PBS, and exposed to UV light at a dose of 50 J/m^2 (CL-1000 Ultraviolet crosslinker, UVP). […]
(§4) Imaging was performed on a Leica DM6000 B fluorescence microscope equipped with a 100× oil immersion objective (Leica HCX Plan Apochromat 100×, 1.40 NA, PH3 CS), a Leica EL6000 metal-halide illumination system, and a Hamamatsu C9100-14 EM-CCD camera. For each sample, six fields of view were acquired, each including both phase-contrast and fluorescence channels. Fluorescence imaging was conducted using a narrow band-pass filter set optimized for CFP (Excitation: 426–446 nm; Emission: 460–500 nm; exposure time: 30 ms). All imaging parameters—including exposure time, illumination intensity, and gain—were kept constant across all strains, treatments, and replicates to ensure quantitative comparability and minimize experimental bias. […]

[3] = tested on: E. coli BTH101 ∆recB strain (IMR04); test: UV survival assay (complementation of BTH101 ΔrecB); format: cell-based, Escherichia coli; conditions: expressed from pUT18C in BTH101 ΔrecB; UV 5, 15 or 30 J/m^2; CFU; 2 to 3 biological replicates
Experimental: as §1
For UV exposure, bacterial cultures were serially diluted 10-fold in LB. From each dilution, 5 µl was spotted onto four separate LB agar plates supplemented with IPTG (0.5 mM) and the appropriate antibiotics. Once droplets had dried, one plate was kept unexposed as a control, while the remaining three plates were subjected to UV irradiation at doses of 5, 15, or 30 J/m^2 using an CL-1000 ultraviolet crosslinker (UVP). Plates were incubated overnight at 30°C, after which colony-forming units (CFUs) were counted. Survival at each UV dose was calculated as the ratio of CFUs on the UV-exposed plates to CFUs on the unexposed control plate.

ΔrecA ΔrecB cells [4] = test: Basal DNA content without UV; format: cell-based, Escherichia coli; conditions: expressed from pUT18C in ΔrecA ΔrecB; unchallenged; relative to ΔrecA ΔrecB cells
Experimental: as §2, §3, §4

β-clamp = β-clamp (Escherichia coli, UniProt P0A988); conditions: N-terminally his-tagged RecB as bait, pBAD30, E. coli MG1655; anti-β-clamp western blot
β-clamp, sequence (P0A988 whole entry): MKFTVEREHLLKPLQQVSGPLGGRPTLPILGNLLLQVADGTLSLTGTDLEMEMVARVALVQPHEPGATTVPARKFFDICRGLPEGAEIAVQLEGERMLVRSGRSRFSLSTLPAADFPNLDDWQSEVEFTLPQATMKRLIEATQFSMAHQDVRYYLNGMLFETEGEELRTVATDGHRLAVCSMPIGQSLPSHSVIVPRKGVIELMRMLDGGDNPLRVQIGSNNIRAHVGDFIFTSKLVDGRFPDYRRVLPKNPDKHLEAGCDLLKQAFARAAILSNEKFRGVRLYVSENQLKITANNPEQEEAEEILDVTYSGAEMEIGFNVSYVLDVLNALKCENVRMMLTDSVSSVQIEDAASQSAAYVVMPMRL
Experimental: His-tagged recB was cloned into the pBAD30 plasmid (kind gift from Prof. Michael T. Laub, MIT and Howard Hughes Medical Institute, USA) by Dongxuan Gene Technology Co. and transformed into E. coli MG1655. An overnight culture was diluted 1:100 into 1 l of LB broth supplemented with ampicillin (100 µg/ml). When the culture reached an OD600 of 0.5, expression was induced with 0.4% (w/v) L-arabinose. After 2 h of induction at 37°C, cells were harvested by centrifugation (4000 x g, 10 min), washed with Phosphate buffered saline (PBS), and crosslinked with 1% formaldehyde for 20 min at room temperature. Crosslinking was quenched by the addition of glycine to a final concentration of 2.5 M. The cell pellets were washed three times with PBS, flash-frozen in liquid nitrogen, and stored at −80°C.
For lysis, cell pellets were resuspended in 10 ml of lysis buffer (50 mM Tris–HCl, pH 8.0; 500 mM NaCl; 10 mM β-mercaptoethanol; 1 mg/ml lysozyme) and subjected to sonication in 3 × 15-s pulses (Vibra cell, Sonics & Materials, Inc., Newtown, CT, USA). […]
After incubation for 30 min at 4°C with gentle rotation, beads were washed four times with wash buffer (50 mM sodium phosphate, pH 8.0; 300 mM NaCl; 0.01% (v/w) Tween-20). […] Beads were removed magnetically, and eluates were analyzed by SDS–polyacrylamide gel electrophoresis (PAGE). […]

B1: RecB: wild type RecB subunit of the E. coli RecBCD complex (T18 fusion, his-tagged or HaloTag according to test) (protein)
chain: MSDVAETLDPLRLPLQGERLIEASAGTGKTFTIAALYLRLLLGLGGSAAFPRPLTVEELLVVTFTEAATAELRGRIRSNIHELRIACLRETTDNPLYERLLEEIDDKAQAAQWLLLAERQMDEAAVFTIHGFCQRMLNLNAFESGMLFEQQLIEDESLLRYQACADFWRRHCYPLPREIAQVVFETWKGPQALLRDINRYLQGEAPVIKAPPPDDETLASRHAQIVARIDTVKQQWRDAVGELDALIESSGIDRRKFNRSNQAKWIDKISAWAEEETNSYQLPESLEKFSQRFLEDRTKAGGETPRHPLFEAIDQLLAEPLSIRDLVITRALAEIRETVAREKRRRGELGFDDMLSRLDSALRSESGEVLAAAIRTRFPVAMIDEFQDTDPQQYRIFRRIWHHQPETALLLIGDPKQAIYAFRGADIFTYMKARSEVHAHYTLDTNWRSAPGMVNSVNKLFSQTDDAFMFREIPFIPVKSAGKNQALRFVFKGETQPAMKMWLMEGESCGVGDYQSTMAQVCAAQIRDWLQAGQRGEALLMNGDDARPVRASDISVLVRSRQEAAQVRDALTLLEIPSVYLSNRDSVFETLEAQEMLWLLQAVMTPERENTLRSALATSMMGLNALDIETLNNDEHAWDVVVEEFDGYRQIWRKRGVMPMLRALMSARNIAENLLATAGGERRLTDILHISELLQEAGTQLESEHALVRWLSQHILEPDSNASSQQMRLESDKHLVQIVTIHKSKGLEYPLVWLPFITNFRVQEQAFYHDRHSFEAVLDLNAAPESVDLAEAERLAEDLRLLYVALTRSVWHCSLGVAPLVRRRGDKKGDTDVHQSALGRLLQKGEPQDAAGLRTCIEALCDDDIAWQTAQTGDNQPWQVNDVSTAELNAKTLQRLPGDNWRVTSYSGLQQRGHGIAQDLMPRLDVDAAGVASVVEEPTLTPHQFPRGASPGTFLHSLFEDLDFTQPVDPNWVREKLELGGFESQWEPVLTEWITAVLQAPLNETGVSLSQLSARNKQVEMEFYLPISEPLIASQLDTLIRQFDPLSAGCPPLEFMQVRGMLKGFIDLVFRHEGRYYLLDYKSNWLGEDSSAYTQQAMAAAMQAHRYDLQYQLYTLALHRYLRHRIADYDYEHHFGGVIYLFLRGVDKEHPQQGIYTTRPNAGLIALMDEMFAGMTLEEA
modifications: left off: T18 (Bordetella pertussis CyaA fragment), N-terminal, kept
- RecB expression level relative to endogenous RecB (BTH101 ΔrecB cells): more than eight times higher
- survival after ciprofloxacin [1]: fully restores ΔrecB strain survival to the wild-type strain (BTH101) level
- reckless DNA degradation after UV (ΔrecA ΔrecB cells [2]): restored the reckless degradation phenotype, comparable to that of the ΔrecA strain
- survival after UV [3]: fully restores ΔrecB strain survival to the wild-type strain (BTH101) level
- basal degradation (ΔrecA ΔrecB cells [4]): ~50%
- pull-down of β-clamp (β-clamp): β-clamp was pulled down and exhibited a strong band on the membrane

Source: paper PMC13254535, “The RecBCD complex interacts directly with the DNA sliding clamp in Escherichia coli” (Nucleic Acids Research, 2026)
